The supplement of paper PMC7877785
± gives the uncertainty stated by the source.

Experiment: self-splicing fitness, log relative to wild type (ln ratio); higher = more splicing; Tetrahymena group I intron in knt gene, E. coli kanamycin selection, DiMSum; sequences stand for … in CUCUCU…GGAGGGAAAAGUUAUCAGGCAUGCACCUGGUAGCUAGUCUUUAAACCAAUAGAUUGCAUCGGUUUAAAAGGCAAGACCGUCAAAUUGCGGGAAAGGGGUCAACAGCCGUUCAGUACCAAGUCUCAGGGGAAACUUUGAGAUGGCCUUGCAAAGGGUAUGGUAAUAAGCUGACGGACAUGGUCCUAACCACGCAGCCAAGUCCUAAGUCAACAGAUCUUCUGUUGAUAUGGAUGCAGUUCACAGACUAAAUGUCGGUCGGGGAAGAUGUAUUCUUCUCAUAAGAUAUAGUCGGACCUCUCCUUAAUGGGAGCUAGCGGAUGAAGUGAUGCAACACUGGAGCCGCUGGGAACUAAUUUGUAUGCGAAAGUAUAUUGAUUAGUUUUGGAGUACUCGUGGUCG
In short: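 Six replicate transformations of E. coli BL21(DE3) with a pET-22b(+) library were grown overnight at 37°C or 30°C. The library randomised all eight P1ex-region intron nucleotides, the intron lying in the knt kanamycin-resistance gene, and plates were LB agar with or without 25 μg/mL kanamycin plus 100 μg/mL carbenicillin, 50 μM IPTG and 0.2% rhamnose. Pooled colonies were amplicon-sequenced on an Illumina HiSeq 2500, and fitness is the DiMSum error-weighted combination of wild-type-normalised replicate fold changes, kanamycin versus none.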

| Sequence | self-splicing fitness (ln) (30 °C) | self-splicing fitness (ln) (37 °C) |
| --- | --- | --- |
| CAAAAGCAAUAUUACGUCUA | -1.75 ± 0.097 | -0.725 ± 0.083 |
| CAAAAGCAAUAUUACGUCUC | -3.38 ± 0.23 | -2.15 ± 0.2 |
| CAAAAGCAAUAUUACGUGUC | -3.51 ± 0.14 | -1.41 ± 0.12 |
| CAACAGCAAUAUUACGAGAA | -2.7 ± 0.39 | -0.546 ± 0.21 |
| CAACAGCAAUAUUACGAUGU | -2.57 ± 0.11 | -1.62 ± 0.11 |
| CAACAGCAAUAUUACGCAAG | -1.48 ± 0.07 | -0.352 ± 0.085 |
| CAACAGCAAUAUUACGCCCC | – | -0.283 ± 0.4 |
| CAACAGCAAUAUUACGCGCC | -1.54 ± 0.073 | -1.43 ± 0.11 |
| CAACAGCAAUAUUACGCUAC | -4.32 ± 0.24 | -2.3 ± 0.15 |
| CAACAGCAAUAUUACGCUAU | -3.29 ± 0.17 | -2.25 ± 0.13 |
| CAACAGCAAUAUUACGGUCC | -2.56 ± 0.17 | -1.22 ± 0.16 |
| CAACAGCAAUAUUACGUACC | -2.7 ± 0.12 | -0.824 ± 0.12 |
| CAACAGCAAUAUUACGUAUC | -1.96 ± 0.16 | -2.75 ± 0.18 |
| CAACAGCAAUAUUACGUGCG | -0.886 ± 0.053 | -0.129 ± 0.074 |
| CAACAGCAAUAUUACGUGUU | -3.54 ± 0.11 | -3.03 ± 0.15 |
| CAAGAGCAAUAUUACGAAUG | -2.34 ± 0.09 | -1.79 ± 0.14 |
| CAAGAGCAAUAUUACGACAA | -0.348 ± 0.28 | -1.43 ± 0.39 |
| CAAGAGCAAUAUUACGAGCG | -0.536 ± 0.07 | -0.728 ± 0.073 |
| CAAGAGCAAUAUUACGAGCU | -2.04 ± 0.28 | -2.06 ± 0.37 |
| CAAGAGCAAUAUUACGAGUC | -2.88 ± 0.28 | -0.209 ± 0.28 |
| CAAGAGCAAUAUUACGCCAA | -3.78 ± 0.4 | -2.68 ± 0.3 |
| CAAGAGCAAUAUUACGCCGC | -2.67 ± 0.25 | -1.99 ± 0.26 |

| Sequence | self-splicing fitness (ln) (30 °C) | self-splicing fitness (ln) (37 °C) |
| --- | --- | --- |
| CAAGAGCAAUAUUACGCCGG | -2 ± 0.15 | -1.35 ± 0.24 |
| CAAGAGCAAUAUUACGCCUC | -1.95 ± 0.33 | – |
| CAAGAGCAAUAUUACGCGAG | -2.92 ± 0.2 | -2.11 ± 0.21 |
| CAAGAGCAAUAUUACGCUCC | -2.23 ± 0.44 | – |
| CAAGAGCAAUAUUACGCUUA | -2.23 ± 0.17 | -0.92 ± 0.15 |
| CAAGAGCAAUAUUACGGAGG | -1.85 ± 0.083 | -1.3 ± 0.13 |
| CAAGAGCAAUAUUACGGGCC | – | -2.71 ± 0.31 |
| CAAGAGCAAUAUUACGGGCU | – | -2.6 ± 0.34 |
| CAAGAGCAAUAUUACGGUUA | -2.21 ± 0.15 | -2.08 ± 0.18 |
| CAAGAGCAAUAUUACGGUUG | -2.72 ± 0.12 | -2.25 ± 0.18 |
| CAAGAGCAAUAUUACGUACA | -3.1 ± 0.35 | -1.89 ± 0.26 |
| CAAGAGCAAUAUUACGUGUA | -3.48 ± 0.17 | -2.42 ± 0.17 |
| CAAUAGCAAUAUUACGAAUU | -3.51 ± 0.26 | -2.23 ± 0.18 |
| CAAUAGCAAUAUUACGACCA | – | -1.81 ± 0.41 |
| CAAUAGCAAUAUUACGACCG | -0.173 ± 0.12 | 0.201 ± 0.18 |
| CAAUAGCAAUAUUACGACGG | -0.109 ± 0.076 | 0.524 ± 0.1 |
| CAAUAGCAAUAUUACGACUU | -3.35 ± 0.24 | -0.264 ± 0.23 |
| CAAUAGCAAUAUUACGAGAA | -3.83 ± 0.39 | -2.71 ± 0.3 |
| CAAUAGCAAUAUUACGAGGA | -2.82 ± 0.26 | -2.07 ± 0.27 |
| CAAUAGCAAUAUUACGAUAC | -3.17 ± 0.19 | -2.41 ± 0.16 |
| CAAUAGCAAUAUUACGAUCG | 0.123 ± 0.069 | -0.0654 ± 0.083 |
| CAAUAGCAAUAUUACGAUUC | -3.4 ± 0.14 | -1.24 ± 0.14 |
